# Assay: soluble on expression in E. coli; label from the status in PepcDB or PDB records
row,Sequence,soluble on expression in E. coli
1,MTTVTKHKVLLIAGPTAVGKTALSLALAKQLNGEIISGDSMQVYRHLDIGTAKIMPEEQAGIPHHLIDIKNIDQRFTVAEFVSRTTALIIDISARGKLPIIVGGTGFYLQSLLAGYQFGPADNEPDMAYRQAWFDRAAVEGSDVAWMALKQRDPQAATAIAPANLVRVVRALEYVHTTGQLFSEQADTHGDTLDAYTLCLTAERALLYTRINQRVDQMVAAGLEQEARWLFDQGGAMLPAGKGIGYHEWFPYFNGEQTRDESIAKIKQDSRRYAKRQLTWFRNKMSVDWINLLEHPELRASIDQRLASWLSLEHHHHHH,soluble
2,MTTYDRNRNAITTGSRVMVSGTGHTGKILSIDTEGLTAEQIRRGKTVVVEGCEEKLAPLDLIRLGMN,soluble
3,MTVDDIMVPRSEIIGIDINDDWKSILRQLSHSPHGRIVLYRDSLDDAISMLRVREAWRLMSEKKEFTKETMLRAADEIYFVPEGTPLSTQLVKFQRNKKKVGLVVNEYGDIQGLVTVEDILEEIVGDFTTSMSPTLAEEVTPQNDGSVIIDGTANVREINKAFNWHLPEDDARTVNGVILEALEEIPVAGTRVRIGEYDIDILDVQDNMIKQVKVFPVKPLRESVAELEHHHHHH,soluble
4,MTVKAVFFDIDGTLLNDRKNIQKTTQKAIQQLKKQGIMVGLATGRGPGFVQPFLENFGLDFAVTYNGQYILTRDKVLYQNQLPKSMIYKVIRYANEKKREISLGTASGLAGSRIIDMGTSPFGQVISSFVPKSWARTVEGSFKHLIRRIKPQSFRNLVTIMREPIYQVVLVASQAETKKIQEKFPHIKITRSSPYSLDLISVDQSKIKGIERLGEMFGFDLSEVMAFGDSDNDLEMLSGVGIGIAMGNAETVVKDGAHFTTDSNNNDGISKALAHYGLIH,not soluble
5,MTVPIAIIGTGIAGLSAAQALTAAGHQVHLFDKSRGSGGRMSSKRSDAGALDMGAQYFTARDRRFATAVKQWQAQGHVAEWTPLLYNFHAGRLSPSPDEQVRWVGKPGMSAITRAMRGDMPVSFSCRITEVFRGEEHWNLLDAEGQNHGPFSHVIIATPAPQASTLLAAAPKLASVVAGVKMDPTWAVALAFETPLQTPMQGCFVQDSPLDWLARNRSKPERDDTLDTWILHATSQWSRQNLDASREQVIEHLHGAFAELIDCTMPAPVFSLAHRWLYARPAGAHEWGALSDADLGIYVCGDWCLSGRVEGAWLSGQEAARRLLEHLQLEHHHHHH,soluble
6,MTVRIAINGFGRIGRNVVRALYESGRRAEITVVAINELADAAGMAHLLKYDTSHGRFAWEVRHEREQLFVGDDVIRILHERTLADLPWRELGVDVVLDCTGVYGNREHGEAHIAAGAKKVLFSHPGSNDLDATVVFGVNQNQLRAEHRIVSNASCTTNCIIPVIKLLDDAYGIESGTVTTIHSAMNDQQVIDAYHSDLRRTRAASQSIIPVDTKLAAGITRIFPQFNDRFEAIAVRVPTINVTAIDLSVTVKKPVKASEVNQLLQKAAQGAFHGIVDYTESPLVSIDFNHDPHSAIVDGTQTRVSGAHLIKTLVWCDNEWGFANRMLDTTLAMAAVGFRLDASASTKL,not soluble
7,MTVTSSAAIDIGGGGGGRRSDRLDSDRTSEDMSFIASPANESFQIGASFVDVQNESSGSIDTATATLHELNYTFGMPPVTEESENMPQNYETVVELLPGEERAPINKLTEFPIEGGSLFVTNFRIVVILKDKEVEEALRFLVFPLQDIEQIDLAIPAFIHLSLKIGRMFTICFKTAEDAALVHKILYTAFQRLNRPISSIYTSRPQDWTSKNTDNPMQSLNAFAWKFSEAVDELDRDGKLPSWLLRADSVAQEITHIDFNRLGMSEHFQISSVNENFEVCPTYPEKIIVPKGITDDDIRKGAPYRSIGRFPAVIWRCRKTRAVLMRSSQPQVGILSWRNPTDEKIIEEAVKASRIEGEEKKQFIIMDARGYTSAFANRARSGGFENTEYYQQAKLEFLGLPNIHAVRGSFNNVRTMLHNLGPNEQLLTSLQTTGWLLNLSNLLVNAANCADHLSKGHSVLVHCSDGWDRTTQVTTLAKIMLDEYYRTVKGFEELIRRDWIAFGHKLYDRQLVAFGNWGTSDERSPVFLQFLEAVRHLQREQPTLFQFTHAYLIKLAKHAYSGLFGSFLFNSHKERREAMEKCKGTLVDIWRFIGPHNEEYVNQSFDEHYTGAVKPVNVSVINLRVWHEVFADEEEHYTQIFSPKEERPLSGCTTPMNTSTSTNLVKSKSSESINSLNVDGSAKESSQQHPTCSTTPSDNTNSLPMSTSFIQQSLYQPKVRGVAAIDRDGVIRFEDDEQAMLRKKNKLRAEEIRRKDEKIEELRRRAVLDTNKVSPGQRQSYSESDVETTGTLERVMSDVSMVDPVNELPHFKPNTTWEGESGHCAYCKKEFNKLSVYVEDRQHHCRNCGRVVCEDCSKNRFSVIEEGKSVQKRACDSCYDSMHETDLKLSSSSTTTTSSSTKIENDSNVPGLDNNSDNVSENVSENAIPDIIVEEKEAEDPIKEAESPSKETKCPKTLRNFISFSPKSSMRKNKVHSRDPLKSIDEGSSSQQAESDDVLDVNEQPL,not soluble
8,MTVTSSAAIDIGGGGGGRRSDRLDSDRTSEDMSFIASPANIGASFVDVQNESSGSIDTATATLHELNYTFGMPPVTEESENMPQNYETVVELLPGEERAPINKLTEFPIEGGSLFVTNFRIVVILKDKEVEEALRFLVFPLQDIEQIDLAIPAFIHLSLKIGRMFTICFKTAEDAALVHKILYTAFQRLNRPISSIYTSRPQDWTSKNTDNPMQSLNAFAWKFSEAVDELDRDGKLPSWLLRADSVAQEITHIDFNRLGMSEHFQISSVNENFEVCPTYPEKIIVPKGITDDDIRKGAPYRSIGRFPAVIWRCRKTRAVLMRSSQPQVGILSWRNPTDEKIIEEAVKASRIEGEEKKQFIIMDARGYTSAFANRARSGGFENTEYYQQAKLEFLGLPNIHAVRGSFNNVRTMLHNLGPNEQLLTSLQTTGWLLNLSNLLVNAANCADHLSKGHSVLVHCSDGWDRTTQVTTLAKIMLDEYYRTVKGFEELIRRDWIAFGHKLYDRQLVAFGNWGTSDERSPVFLQFLEAVRHLQREQPTLFQFTHAYLIKLAKHAYSGLFGSFLFNSHKERREAMEKCKGTLVDIWRFIGPHNEEYVNQSFDEHYTGAVKPQIFSPKEERPLSGCTTPMNTSTSTNLVKSKSSESINSLNVDGSAKESSQQHPTCSTTPSDNTNSLPMSTSFIQQSLYQPKVRGVAAIDRDGVIRFEDDEQAMLRKKNKLRAEEIRRKDEKIEELRRRAVLDTNKVSPGQRQSYSESDVETTGTLERVMSDVSMVDPVNELPHFKPNTTWEGESGHCAYCKKEFNKLSVYVEDRQHHCRNCGRVVCEDCSKNRFSVIEEGKSVQKRACDSCYDSMHETDLKLSRATSLSEMSSFDSFGPSSPPASSTSSSSLNMLASMSPTRPQPIPISCKSSSNSISSPRPSPGEFSRHSSTQAVKG,not soluble
9,MTYDLSRLTQDLPHETSEPSPKSASTLSLPPGESDQNGNTSSHEGVTPPRRRCTISRSSSIDSISGETLISEYFSSDELDKLSTALSEVTF,not soluble
10,MTYFTSWDEFAKAAERLHSANPEKCRFVTKYNHTKGQLVLKLTDDVVCLQYSTNQLQDVKKLEKLSSTLLRGIVTQ,soluble
11,MTYGYPKKWKENMTSGQVIAAELRLGIVSGEIESHIQLSENQVAQQFNVSRSPVRDAFKLLQTDQLIQLERMGAQVLPFGDQEKKEMYDLRLMLESFAFSKLSGTDTQHIIKEMKKQLEMMKVAVQFEDAEAFTQHDFEFHEVMIQATNHQYLKVFWNHLKPVMESLILISMRQRMANDPKDFERIHKNHQVFIDAVENDDASILRKAFHLNFDDVGENIEAFWLR,not soluble
12,MTYKELATFLKVLSDSSRLEILDLLSCGELCACDLLAHFQFSQPTLSYHMKALVKTNLVTTRKIGNKHLYQLNHNIFESVINNLSKVHTSNQRCICHNLKTGEC,not soluble
13,MTYPYRTTMALNTYQYRETTMIDPKKIEQIARQVHESMPKGIREFGEDVEKKIRQTLQAQLTRLDLVSREEFDVQTQVLLRTREKLALLEQRISELENRSTEIKKQPDPETLPPTLLEHHHHHH,not soluble
14,MVADHFRYLVQYDDINREEHAHKSRIAYQEALGIAKDKMQPTHPIRLGLALNASALNFDVLNLPKEANEIAQSALDSAHRELEKMKSSLDSYDISNLKRARTLYDLLKSTHEQRVDGKEGEEADN,not soluble

# From the DeepSol protein solubility set
